This passage reports self-cleavage results from the RNAGym collection of RNA variant scans (doi:10.7554/elife.80360).

The labels stand for the following.
B1: Hairpin Ribozyme (parent)
chain: GUCCUCUUUCACGUGCGCGUGAAAGAGAGAAGUGAACCAGAGAAACACACGUUGUGGUAUAUUACCUGGUA

The data set covers variants of B1. Nature of the data set: self-cleavage, relative activity (ratio to wild type); higher = more cleavage; co-transcriptional.
In the case of C38A U62G, the self-cleavage worked out at 0.139. With G15U C65G the figure was 0.244.

As to A47U G54C, the self-cleavage was found to be 0.144.

As to G19C U53C, the self-cleavage stood at 0.679. On to A22C A26C, for which the self-cleavage came out at 0.528. With C10A G51C the figure was 0.566; with G1C U53C, 0.239; with G51U U67C, 0.299. Under A35C A43C stands 0.0885; under C38G A47G, 0.116; under C18U C48A, 0.134. As to U7C A39C, the self-cleavage stood at 0.583.

Regarding A22G A23U, the self-cleavage was determined as 0.59. U5C A24C: the self-cleavage stood at 0.483. With U7G U20C, the self-cleavage was 0.798. In the case of C12U G57C, the self-cleavage was found to be 0.222. Under A61U U67C stands 0.175; under G40A C66A, 0.322; under A11G G54C, 0.297.

In the case of A23G U53G, the self-cleavage amounted to 0.706. Under G17C A36C stands 0.532; under A11U A36G, 0.7. With U20C G40A the figure was 0.314; with U53A G69C, 0.19. Under A39G U55A stands 0.0918; under U14C A26G, 0.919; under G21A A71G, 0.854. Consider C4G U33G, for which the self-cleavage stood at 0.13. For G42U U58A, the self-cleavage was determined as 0.0966.

Regarding U33A A59G, the self-cleavage was 0.106. A45C G56C: the self-cleavage was 0.312.

As to A35G U62G, the self-cleavage is 0.139.

As for U20G G54U, the self-cleavage was found to be 0.595.

Regarding G1A C66U, the self-cleavage was 0.127. With C50A G69C the figure was 0.12; with A11C G25A, 0.504; with U14G A23G, 0.703. Under C3A G68C stands 0.211; under G1U A45C, 0.126. With G1U A39C the figure was 0.118; with C3U U7A, 0.427.

Turning to G29U A36G, the self-cleavage worked out at 0.275. With A23G A24U the figure was 0.651; with C6U A30G, 0.128. With A35C A64U the figure was 0.192. In the case of A45G U62C, the self-cleavage came to 0.0923. With U9C C38A the figure was 0.225. With G25A C50U the figure was 0.315; with C16A U20G, 0.812; with U2G A24U, 0.238.

Take G1U G25U: the self-cleavage amounted to 0.21. With C16U C66A the figure was 0.194; with U8G C50A, 0.227; with A45U U70A, 0.0397.

Take G19U A22C: the self-cleavage was found to be 0.625.

On to G25U A59G, for which the self-cleavage was found to be 0.108.

On to A49G U55G, for which the self-cleavage was 0.498. With U5G C48U the figure was 0.196; with C4A A45G, 0.151; with U33A C50A, 0.18. On to A28G A64U, for which the self-cleavage was found to be 0.159. Under A45G G57A stands 0.0893; under C3A C16U, 0.769; under C48G U60G, 0.108. Under G40C G69C stands 0.169; under C6U A31U, 0.101; under G21U U53A, 0.836.

Regarding U8A G54U, the self-cleavage was 0.524. As to A45U U55A, the self-cleavage was 0.197.

C48U G54U: the self-cleavage stood at 0.203.

Take C18U U55G: the self-cleavage was 0.382. Consider C10A C46A, for which the self-cleavage was 0.109. Under C4U U55A stands 0.0732; under C16G A61U, 0.253; under U8A U67C, 0.186.

In the case of C6G A47G, the self-cleavage is 0.0875. With C38G A61C the figure was 0.133.

On to C16U A47U, for which the self-cleavage was determined as 0.0914. Under G27C U60G stands 0.0405; under A31U C48A, 0.166.

Regarding U9A C12G, the self-cleavage came to 0.512.

As to A41C U53G, the self-cleavage stood at 0.758. Under U5C U7A stands 0.395; under A22G C65G, 0.249.

For the variant U2G G42A, the self-cleavage amounted to 0.0588.

On to C3U U20A, for which the self-cleavage is 0.374. Regarding U2C G29C, the self-cleavage was 0.16. U2C C37A: the self-cleavage amounted to 0.0991. Under A22U U58A stands 0.589. For the variant C12G G32U, the self-cleavage worked out at 0.179. With A43G G68U the figure was 0.092; with G21C G42U, 0.379. With A36C U58G the figure was 0.595. With C4G A59G the figure was 0.169; with U60A, 0.849. On to U5A G15U, for which the self-cleavage was found to be 0.495. With G32C G54U the figure was 0.0594; with G25U G69A, 0.261. With U53A A61C the figure was 0.178. Consider A24C A35C, for which the self-cleavage was 0.778. Under U7G A41U stands 1.12; under U8G A39U, 0.288; under C4G G27C, 0.653. Take C10G A59G: the self-cleavage was determined as 0.171. With G34A C37U the figure was 0.915. On to A24C A26G, for which the self-cleavage came to 0.835. With A30U C65U the figure was 0.0165; with G1U G17C, 0.112. For A30G U53G, the self-cleavage is 0.157. In the case of U2G U60G, the self-cleavage stood at 0.278. Under C3G G27U stands 0.164. With U14C the figure was 0.982. With U14A, the self-cleavage is 0.956. For G13A U70C, the self-cleavage worked out at 0.615. With A24C U62A the figure was 0.3. Regarding C3U A24G, the self-cleavage amounted to 0.494. With U7C U53G the figure was 0.686; with A39G G40C, 0.0572. Under G34U U58A stands 1.5; under C65U U70C, 0.111; under G40C U62G, 0.0847. Under A35U G40C stands 0.185; under U7G G25C, 0.253; under C37U G51U, 0.81. On to A28G C48A, for which the self-cleavage worked out at 0.143. With C18A A47C the figure was 0.424; with C18U G34C, 1.44. Under C4U A28G stands 0.458; under G42C A45G, 0.095.

Consider G17A G57C, for which the self-cleavage worked out at 0.146. For the variant C12G G68C, the self-cleavage was determined as 0.144. As for G17A C37G, the self-cleavage turned out to be 0.332. With A28U G57C the figure was 0.113.

In the case of A36G A61G, the self-cleavage is 0.154. Under A30U G69U stands 0.149.

Regarding U70A A71G, the self-cleavage came to 0.886. Take A41G A43U: the self-cleavage was 0.152. With G21U A71G the figure was 0.805.

For the variant G17C A30C, the self-cleavage turned out to be 0.099. With A41G G56A the figure was 0.255; with C4U C38A, 0.13. Under G42U C48A stands 0.215; under U55G U63C, 0.0583. With U7C G51U the figure was 1.1; with U9C C37A, 0.355. Regarding C3A C12G, the self-cleavage came out at 0.636. On to C10U A30U, for which the self-cleavage was found to be 0.12. For C4U U67A, the self-cleavage is 0.121. Under A64C C66U stands 0.27; under G19U U53A, 0.971. Under G17U U33G stands 0.186; under G25C U33A, 0.0816.

G54C A59U: the self-cleavage amounted to 0.18.

As for C18G G54A, the self-cleavage worked out at 0.51. A35U A44U: the self-cleavage stood at 0.0832. Regarding C4G, the self-cleavage was determined as 0.225. Take U9C U58A: the self-cleavage worked out at 0.559.

C16U U52C: the self-cleavage turned out to be 0.7. In the case of G1A U7A, the self-cleavage came to 0.127. G51U C66G: the self-cleavage came to 0.2. With A49G G56A the figure was 0.204; with U60A C66A, 0.365; with U14G A41G, 0.589. Under A45G G51A stands 0.161; under A23G A36C, 0.69.

Turning to A47C G69A, the self-cleavage was found to be 0.151. With A31C A71C the figure was 0.202.
